Target: T1, murine 4-1BBL–CD8 fusion protein (mouse, UniProt P41274 104-309)
T1 sequence (looked up): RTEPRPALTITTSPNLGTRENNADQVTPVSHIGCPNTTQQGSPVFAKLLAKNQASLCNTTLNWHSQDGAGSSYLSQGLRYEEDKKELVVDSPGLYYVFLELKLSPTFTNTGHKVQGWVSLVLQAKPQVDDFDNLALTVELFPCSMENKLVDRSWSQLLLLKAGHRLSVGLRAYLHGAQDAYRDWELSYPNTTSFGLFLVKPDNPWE
Experiment: SPR

B1: murine 4-1BB–Ig fusion protein (Fc fusion, mouse, UniProt P20334 22-185, looked up)
chain: GAVQNSCDNCQPGTFCRKYNPVCKSCPPSTFSSIGGQPNCNICRVCAGYFRFKKFCSSTHNAECECIEGFHCLGPQCTRCEKDCRPGQELTKQGCKTCSLGTFNDQNGTGVCRPWTNCSLDGRSVLKTGTTEKDVVCGPPVVSFSPSTTISVTPEGGPGGHSLQ
  Kd: 1.16 nM
  koff: 0.000213 s⁻¹
  kon: 183000 M⁻¹ s⁻¹
